From US20240077502 come the findings set out here.

Substitutions are numbered along the chain they refer to. In names and notes the source's numbering stands.

The target of data set [1] is T1, endogenous fetuin A in human plasma, P02765.
T1 chain: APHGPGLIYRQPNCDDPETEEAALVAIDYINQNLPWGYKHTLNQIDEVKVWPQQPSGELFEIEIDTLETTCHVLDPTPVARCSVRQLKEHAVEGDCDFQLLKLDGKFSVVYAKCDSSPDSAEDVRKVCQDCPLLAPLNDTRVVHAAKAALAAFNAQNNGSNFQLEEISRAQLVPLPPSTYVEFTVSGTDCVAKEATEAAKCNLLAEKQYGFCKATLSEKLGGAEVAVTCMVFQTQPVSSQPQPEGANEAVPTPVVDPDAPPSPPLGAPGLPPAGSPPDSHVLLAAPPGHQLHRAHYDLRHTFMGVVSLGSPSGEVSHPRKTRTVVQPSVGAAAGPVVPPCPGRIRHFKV

For the next data set, the target named is T2, purified fetuin A.
T2 sequence (P02765 19-300, species assumed, looked up): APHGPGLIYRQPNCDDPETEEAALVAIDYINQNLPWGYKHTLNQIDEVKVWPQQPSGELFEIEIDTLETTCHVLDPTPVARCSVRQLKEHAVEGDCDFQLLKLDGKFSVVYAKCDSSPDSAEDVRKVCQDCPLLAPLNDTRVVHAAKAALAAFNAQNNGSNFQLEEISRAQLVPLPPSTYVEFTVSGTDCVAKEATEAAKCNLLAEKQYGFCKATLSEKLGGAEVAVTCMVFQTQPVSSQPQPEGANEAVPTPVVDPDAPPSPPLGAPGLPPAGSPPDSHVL
T2 sequence (P02765 341-367, species assumed, looked up): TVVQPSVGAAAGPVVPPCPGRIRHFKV

The target in the next data set is T3, Abz-LMVGGK(Dnp)-CONH2.
T3 chain: LMVGGK

The target of the next data set is T4, Btn-LMVGG.
T4 chain: GLMVGGV

The target in data set [2] is T5, LPESG substrate (flow cytometry panel).
T5 chain: LPESG

For a further data set, the target named is T6, Abz-LPESGK(Dnp)-CONH2.
T6 chain: LPESGK

The target in data set [3] is T7, LPPAG substrate (flow cytometry panel).
T7 chain: LPPAG

Sequence of Aβ42, P05067 (P05067 whole entry, looked up): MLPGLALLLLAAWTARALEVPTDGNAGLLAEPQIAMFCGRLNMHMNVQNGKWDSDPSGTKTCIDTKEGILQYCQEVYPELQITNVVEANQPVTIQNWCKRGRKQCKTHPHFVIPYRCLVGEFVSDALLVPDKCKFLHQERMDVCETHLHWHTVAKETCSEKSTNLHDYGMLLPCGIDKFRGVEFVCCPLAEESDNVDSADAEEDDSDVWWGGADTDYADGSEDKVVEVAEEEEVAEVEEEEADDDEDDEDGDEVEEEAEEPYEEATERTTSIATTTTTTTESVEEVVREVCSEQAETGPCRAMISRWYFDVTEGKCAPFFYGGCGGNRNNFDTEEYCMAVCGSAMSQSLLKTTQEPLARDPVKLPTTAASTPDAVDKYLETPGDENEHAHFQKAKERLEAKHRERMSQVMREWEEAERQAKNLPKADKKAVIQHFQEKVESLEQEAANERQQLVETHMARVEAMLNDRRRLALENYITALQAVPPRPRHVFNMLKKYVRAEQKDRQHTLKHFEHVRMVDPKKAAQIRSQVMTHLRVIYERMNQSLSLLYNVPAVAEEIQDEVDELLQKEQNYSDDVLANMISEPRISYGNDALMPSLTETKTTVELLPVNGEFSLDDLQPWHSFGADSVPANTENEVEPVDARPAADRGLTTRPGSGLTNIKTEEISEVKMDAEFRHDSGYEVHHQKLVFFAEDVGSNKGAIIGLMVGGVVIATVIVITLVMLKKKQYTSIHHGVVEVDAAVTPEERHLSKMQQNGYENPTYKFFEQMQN
Sequence of Aβ40, P05067 (P05067 whole entry, looked up): as above
Sequence of Aβ43, P05067 (P05067 whole entry, looked up): as above
Sequence of AβM1-40, P05067 (P05067 whole entry, looked up, tested part not stated): as the sequence (P05067 whole entry, looked up) above
Sequence of AβM1-42, P05067 (P05067 whole entry, looked up, tested part not stated): as the sequence (P05067 whole entry, looked up) above

B1: SrtA 8.5-H3 (protein)
chain: MKKWTNRLMTIAGVVLILVAAYLFAKPHIDNYLHDKDKDEKIEQYDKNVKEQASKDKKQQARPQIPKDKSKVAGYIEIPDADIKEPVYPGPATREQLDRGVSFVEEDESLDDQNISIIGHTALLRPNYQFTNLRAAKIGSMVYFKVGNETRKYKMTSIRNVKPTAVEVLDEQEGKDRQLTLATCDDYNIETGVWESSKIFVATEVK
In the case of B1, the “labeling with GGGK(Btn) in human plasma, Western blot” value in [1] is “Western blot of overnight reaction of SrtA 8.5-H3 (50 µM) and GGGK[SEQ ID NO: 6](Btn) (1 mM) in human plasma shows labeling of endogenous fetuin A”. Further, the “labeling with GGGK(Btn), Western blot” value with purified fetuin A was “Labeled fetuin A is detected by Western blot”. In the data set with Abz-LMVGGK(Dnp)-CONH2, the KM result was “KM=52 µM (95% CI=29 to 103 µM)”, the kcat entry is given as “kcat=0.012 s-1 (95% CI=0.009 to 0.017 s-1)” and the “percent of substrate converted to product (HPLC assay for SrtA activity)” value is recorded as “converting 10% of M substrate to product in two hours”.

B2: minimal mutant (4S.6 with S118I, G134R, R159C, K177R, V182A, and R197S mutations) (protein)
chain: QAKPQIPKDKSKVAGYIEIPDADIKEPVYPGPATREQLDRGVSFVEENESLDDQNISIIGHTAIDRPNYQFTNLRAAKKGSMVYFKVGNETRKYKMTSICNVKPTAVEVLDEQKGKDRQLTLATCDDYNVETGVWETSKIFVATEVK
Take B2: in the data set with Btn-LMVGG, the “fold change of activity against 4S.6 (flow cytometry)” value was 4-fold improvement in LMVGG [SEQ ID NO: 3] activity relative to 4S.6 and the “fold change of activity against SrtAβ (flow cytometry)” value is given as 23-fold lower activity than SrtAβ.

B3: round 7 consensus sequence (R7) reversion mutant Y94R (protein)
chain: B2 chain with I64L, D65L, K79I, C100R, K114E, R118K, V130F, T137S
As to B3, the “fold change of activity against the round 7 consensus sequence (flow cytometry, 100-1000 nM Btn-LMVGG)” value in the data set with Btn-LMVGG is on record as “Reversion mutant Y94R showed a 2.3-fold improvement on average across substrate concentrations compared to the round 7 consensus sequence”.

B4: round 7 consensus sequence (R7) reversion mutant L123I (protein)
chain: B2 chain with R35Y, D65L, K79I, C100R, K114E, R118K, V130F, T137S
B4: the “fold change of activity against the round 7 consensus sequence (flow cytometry, 100-1000 nM Btn-LMVGG)” value in the data set with Btn-LMVGG is on record as “L123I (1.5-fold)”.

B5: round 7 consensus sequence (R7) reversion mutant L124D (protein)
chain: B2 chain with R35Y, I64L, K79I, C100R, K114E, R118K, V130F, T137S
In the case of B5, the “fold change of activity against the round 7 consensus sequence (flow cytometry, 100-1000 nM Btn-LMVGG)” value in the data set with Btn-LMVGG was “L124D (1.1-fold)”.

B6: sortase 4S.6 (protein)
chain: B2 chain with I59S, R75G, C100R, R118K, A123V, S138R
As to B6, the “substrate preference, LPESG over LMVGG (flow cytometry)” value in [2] was 49-fold preference for LPESG [SEQ ID NO: 4] over LMVGG [SEQ ID NO: 3]. Besides, the “labeling with GGGK(Btn) in human plasma, Western blot” value in [1] was 4S.6, but not SrtAβ, labels fetuin A. The kinetic parameters with Abz-LMVGGK(Dnp)-CONH2 is 4S.6 activity on LMVGG [SEQ ID NO: 3] was not detectable. Further, in the data set with Abz-LPESGK(Dnp)-CONH2, the KM result is “KM=610 µM (95% CI=90 to 5550 µM)” and the kcat result is “kcat=0.36 s-1 (95% CI=0.22 to 0.96 s-1)”.

B7: SrtAβ (protein)
chain: MKKWTNRLMTIAGVVLILVAAYLFAKPHIDNYLHDKDKDEKIEQYDKNVKEQASKDKKQQAKPQIPKDKSKVAGYLEIPDADIKEPVYPGPATREQLDRGVCFVDEDESLDDQNISIIGHTALLRPHYQFTNLRAAKLDSIVYFTVGNETRRYKITSICNVRPTAVEVLDEHEGKDRQLTLATCDDYNYETGVWESSKIFVATEVR
As for B7, in data set [2], the “fold change of activity against 4S.6 (flow cytometry, yeast display)” value (from here on “fold change … (flow cytometry, yeast display)”) is 53-fold reduced activity on LPESG. In the data set with AβM1-40, P05067, the “conversion to transpeptidation product with GGGK(Btn) (HPLC)” value is recorded as 82% of the starting AβM1-40 was converted to the desired product. Moreover, in [1], the “activity on fetuin A in human plasma (streptavidin pulldown, Coomassie)” value is listed as “a sortase variant with greatly reduced activity on fetuin A relative to the starting sortase 4S.6 was generated” and the “labeling with GGGK(Btn) in human plasma, Western blot” value is listed as 4S.6, but not SrtAβ, labels fetuin A. Further, in the data set with Btn-LMVGG, the “change in substrate preference against 4S.6 (flow cytometry)” value was 1,470-fold change in preference to favor LMVGG [SEQ ID NO: 3] over LPESG [SEQ ID NO: 4]; the “fold change … (flow cytometry, yeast display)” value is on record as 28-fold increased activity on LMVGG; the “substrate preference, LMVGG over LPESG (flow cytometry)” value was 30-fold preference for LMVGG [SEQ ID NO: 3] over LPESG [SEQ ID NO: 4]. The “modification by the sortase” value in the data set with Aβ43, P05067 is “SrtAβ has been shown to modify Aβ40, Aβ42, and Aβ43”. Besides, the “conversion to transpeptidation product with GGGRR (HPLC)” value in the data set with AβM1-42, P05067 is 64% of the starting AβM1-42 was converted to the desired product. For the same protein, the “fold change … (flow cytometry, yeast display)” value in data set [3] is listed as 11-fold reduced activity on LPPAG. Also, in the data set with Aβ42, P05067, the “conversion to transpeptidation product with 200 µM GGGRR (HPLC)” value is “as opposed to 50% when reacted with 200 µM GGGRR”; the “conversion to transpeptidation product with 1 mM GGGRR (HPLC)” value is given as 64% of the Aβ42 was converted to the expected product when reacted with 1 mM GGGRR; the “modification by the sortase” value is “SrtAβ has been shown to modify Aβ40, Aβ42, and Aβ43”. In the data set with Aβ40, P05067, the “biotinylated product formed in human plasma (streptavidin capture ELISA)” value is reported as 1.5 µM SrtAβ generating 2.3 µM of biotinylated product from 5 µM Aβ40 in two hours; the “lowest Aβ40 concentration at which labeling was observed in human plasma (m266 capture ELISA)” value is on record as “labeling of Aβ40 spiked into human plasma at concentrations as low as 5 nM was observed”; the “modification by the sortase” value was “SrtAβ has been shown to modify Aβ40, Aβ42, and Aβ43”; the “yield of transpeptidation products with glycine nucleophiles (HPLC)” value was “the expected transpeptidation products were observed in yields of 80-88%”. In the data set with Abz-LMVGGK(Dnp)-CONH2, the KM result was “KM=128 µM (95% CI=87 to 198 µM)” and the kcat result is reported as “kcat=0.018 s-1 (95% CI=0.015 to 0.023 s-1)”. Further, the “kinetic parameters (HPLC assay)” value in the data set with Abz-LPESGK(Dnp)-CONH2 is “SrtAβ activity on LPESG [SEQ ID NO: 4] was too low to establish accurate kinetic parameters”.

B8: SrtAβ reversion mutant C159R (protein)
chain: B7 chain with C159R
B8 displayed a reduction of activity against SrtAβ (flow cytometry, yeast display) with Btn-LMVGG of 2 fold.

B9: SrtAβ reversion mutant A182V (protein)
chain: B7 chain with A182V
B9 returned a reduction of activity against SrtAβ (flow cytometry, yeast display) in the data set with Btn-LMVGG of 2 fold.

B10: SrtAβ reversion mutant R177K (protein)
chain: B7 chain with R177K
Turning to B10, the reduction of activity against SrtAβ (flow cytometry, yeast display) with Btn-LMVGG stood at 2 fold.

B11: SrtAβ reversion mutant R134G (protein)
chain: B7 chain with R134G
Take B11: the reduction of activity against SrtAβ (flow cytometry, yeast display) in the data set with Btn-LMVGG was 2 fold.
